Measurements from publication PMC8125372, “Refining the Design of Diblock Elastin-Like Polypeptides for Self-Assembly into Nanoparticles” (Polymers, 2021).

Target: the molecule itself
Experiment: dynamic light scattering; 10 µM ELP in PBS on a heating ramp (7-40 °C in the legend, 7-37 °C in the methods), scattering angle 90°; nanoparticles between the CMT and Tt,bulk (18.5 and 27 °C for ELP-[*M1V3-40]-[I-90]; 19 and 31 °C for ELP-[*M1V3-60]-[I-90])

B1: ELP-[*M1V3-40]-[I-90] (other)
chain: MWVPGVGVPGMGVPGVGVPGVGVPGVGVPGMGVPGVGVPGVGVPGVGVPGMGVPGVGVPGVGVPGVGVPGMGVPGVGVPGVGVPGVGVPGMGVPGVGVPGVGVPGVGVPGMGVPGVGVPGVGVPGVGVPGMGVPGVGVPGVGVPGVGVPGMGVPGVGVPGVGVPGVGVPGMGVPGVGVPGVGVPGVGVPGMGVPGVGVPGVGIGVPGIGVPGIGVPGIGVPGIGVPGIGVPGIGVPGIGVPGIGVPGIGVPGIGVPGIGVPGIGVPGIGVPGIGVPGIGVPGIGVPGIGVPGIGVPGIGVPGIGVPGIGVPGIGVPGIGVPGIGVPGIGVPGIGVPGIGVPGIGVPGIGVPGIGVPGIGVPGIGVPGIGVPGIGVPGIGVPGIGVPGIGVPGIGVPGIGVPGIGVPGIGVPGIGVPGIGVPGIGVPGIGVPGIGVPGIGVPGIGVPGIGVPGIGVPGIGVPGIGVPGIGVPGIGVPGIGVPGIGVPGIGVPGIGVPGIGVPGIGVPGIGVPGIGVPGIGVPGIGVPGIGVPGIGVPGIGVPGIGVPGIGVPGIGVPGIGVPGIGVPGIGVPGIGVPGIGVPGIGVPGIGVPGIGVPGIGVPGIGVPGIGVPGIGVPGIGVPGIGVPGIGVPGIGVPGIGVPGIGVPGIGVPGY
modifications: Thioether side chain of Met residues oxidized into sulfoxide M(O) with H2O2 (11 Met); two Met residues were found oxidized into sulfone M(O2)
notes: N-terminal leader of the elastin-like polypeptide; C-terminal residue; also called oxidized ELP-[M1V3-40]-[I-90]; source: E. coli BL21 Star (DE3), purified (inverse transition cycling with ammonium sulfate, desalting), then oxidised with H2O2
- binding result: binds
